The values below come from PMC3160652 (The EMBO Journal, 2011).

In the assay the target is T1, GST–Ubp3 (UBP3 cloned into pGEX4T, PEN253) (S. cerevisiae, UniProt Q01477 1-912).
T1 sequence (looked up): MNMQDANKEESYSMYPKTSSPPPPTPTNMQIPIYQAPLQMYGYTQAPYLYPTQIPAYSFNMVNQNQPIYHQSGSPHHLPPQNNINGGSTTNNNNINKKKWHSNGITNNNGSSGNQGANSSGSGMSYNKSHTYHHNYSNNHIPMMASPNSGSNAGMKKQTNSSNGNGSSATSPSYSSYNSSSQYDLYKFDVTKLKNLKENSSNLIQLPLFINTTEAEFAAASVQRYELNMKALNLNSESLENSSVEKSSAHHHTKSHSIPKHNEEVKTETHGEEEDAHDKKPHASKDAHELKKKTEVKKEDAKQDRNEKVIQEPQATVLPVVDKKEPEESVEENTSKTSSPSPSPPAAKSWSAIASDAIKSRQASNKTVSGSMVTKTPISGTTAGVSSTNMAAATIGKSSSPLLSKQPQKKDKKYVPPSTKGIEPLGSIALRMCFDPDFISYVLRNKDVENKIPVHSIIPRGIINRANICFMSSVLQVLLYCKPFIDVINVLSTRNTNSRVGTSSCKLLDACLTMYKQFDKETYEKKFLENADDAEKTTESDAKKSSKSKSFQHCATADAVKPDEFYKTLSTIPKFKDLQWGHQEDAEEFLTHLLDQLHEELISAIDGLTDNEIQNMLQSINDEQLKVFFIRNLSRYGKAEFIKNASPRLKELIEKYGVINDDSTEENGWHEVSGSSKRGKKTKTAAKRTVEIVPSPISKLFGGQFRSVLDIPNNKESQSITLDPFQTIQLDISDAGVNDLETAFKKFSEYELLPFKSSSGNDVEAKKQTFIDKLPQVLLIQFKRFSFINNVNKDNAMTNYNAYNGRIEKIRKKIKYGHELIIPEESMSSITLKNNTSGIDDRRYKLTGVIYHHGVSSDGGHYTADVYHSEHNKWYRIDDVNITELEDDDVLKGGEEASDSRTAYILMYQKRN
As to the kind of experiment: pull-down.

B1: His-tagged Hog1 (enzyme, S. cerevisiae, UniProt P32485 1-435, looked up)
chain: MTTNEEFIRTQIFGTVFEITNRYNDLNPVGMGAFGLVCSATDTLTSQPVAIKKIMKPFSTAVLAKRTYRELKLLKHLRHENLICLQDIFLSPLEDIYFVTELQGTDLHRLLQTRPLEKQFVQYFLYQILRGLKYVHSAGVIHRDLKPSNILINENCDLKICDFGLARIQDPQMTGYVSTRYYRAPEIMLTWQKYDVEVDIWSAGCIFAEMIEGKPLFPGKDHVHQFSIITDLLGSPPKDVINTICSENTLKFVTSLPHRDPIPFSERFKTVEPDAVDLLEKMLVFDPKKRITAADALAHPYSAPYHDPTDEPVADAKFDWHFNDADLPVDTWRVMMYSEILDFHKIGGSDGQIDISATFDDQVAAATAAAAQAQAQAQAQVQLNMAAHSHNGAGTTGNDHSDIAGGNKVSDHVAANDTITDYGNQAIQYANEFQQ
With B1, the binding result is “binds”.
